# Legend:
# HeLa Kyoto [1] = assay: solubility in G1/S (NP-40 vs SDS abundance) (log2 ratio); higher = more soluble; conditions: cell cycle stage: G1/S
# HeLa Kyoto [2] = assay: thermal stability score vs G1/S (z-score of summed log2 fold changes over temperatures); higher = more thermally stable than in G1/S
# HeLa Kyoto [3] = assay: solubility change mitosis vs G1/S (difference of NP-40 vs SDS log2 ratios) (log2 ratio difference); higher = more soluble in mitosis
# HeLa Kyoto [4] = assay: melting temperature (median over replicates), in situ; higher = more thermally stable
# [5] = cell cycle stage: early G1 (4.5 h after nocodazole release)
# 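For melting temperature (median over replicates), in situ in this document: HeLa Kyoto cells synchronized by double thymidine or nocodazole block, proteins quantified by TMT10plex mass spectrometry, three independent biological replicates.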
# 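For solubility change mitosis vs G1/S (difference of NP-40 vs SDS log2 ratios) in this document: synchronized HeLa Kyoto cells (double thymidine block for G1/S, nocodazole release for mitosis), protein amounts in NP-40 versus SDS lysates quantified by mass spectrometry, three biological replicates.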
# 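For solubility in G1/S (NP-40 vs SDS abundance) in this document: HeLa Kyoto cells arrested at G1/S by double thymidine block, proteins quantified by TMT10plex mass spectrometry in mild NP-40 versus SDS extracts, three biological replicates.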
# 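For thermal stability score vs G1/S (z-score of summed log2 fold changes over temperatures) in this document: synchronized HeLa Kyoto cells, proteins quantified by TMT10plex mass spectrometry, three biological replicates, mitosis taken 0.5 h after nocodazole release, G1/S directly after double thymidine block.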
# FXR1, sequence (chain, as listed by the source): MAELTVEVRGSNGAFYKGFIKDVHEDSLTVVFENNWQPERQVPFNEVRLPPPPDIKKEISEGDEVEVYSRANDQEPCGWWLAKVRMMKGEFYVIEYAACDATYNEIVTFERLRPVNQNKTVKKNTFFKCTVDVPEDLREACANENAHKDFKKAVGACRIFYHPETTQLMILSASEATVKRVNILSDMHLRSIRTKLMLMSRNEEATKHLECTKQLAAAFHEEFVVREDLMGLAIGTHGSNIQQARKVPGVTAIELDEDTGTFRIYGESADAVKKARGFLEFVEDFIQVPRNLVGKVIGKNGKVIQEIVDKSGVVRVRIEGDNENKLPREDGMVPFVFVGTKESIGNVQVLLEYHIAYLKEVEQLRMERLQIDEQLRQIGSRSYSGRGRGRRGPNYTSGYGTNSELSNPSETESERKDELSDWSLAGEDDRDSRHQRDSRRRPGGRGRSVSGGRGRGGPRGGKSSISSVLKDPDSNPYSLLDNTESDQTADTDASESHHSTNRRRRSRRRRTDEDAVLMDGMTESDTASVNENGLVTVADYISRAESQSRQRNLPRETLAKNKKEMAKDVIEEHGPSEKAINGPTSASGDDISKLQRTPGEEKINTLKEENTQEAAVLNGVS
Substance,solubility in G1/S (log2) (HeLa Kyoto [1]),thermal stability score (HeLa Kyoto [2]; [5]),thermal stability score (HeLa Kyoto [2]; cell cycle stage: mitosis),solubility change mitosis (log2) (HeLa Kyoto [3]),melting temperature (HeLa Kyoto [4]; cell cycle stage: G1/S),melting temperature (HeLa Kyoto [4]; cell cycle stage: mitosis)
MPRARKGNTLRKGGQRRGGGARSSAQADSGSSDDEAASEARSTASECPSLLSTTAEDSLGGDVVDEQGQQEDLEEKLKEYVDCLTDKSAKTRQGALESLRLALASRLLPDFLLERRLTLADALEKCLKKGKGEEQALAAAVLGLLCVQLGPGPKGEELFHSLQPLLVSVLSDSTASPAARLHCASALGLGCYVAAADIQDLVSCLACLESVFSRFYGLGGSSTSPVVPASLHGLLSAALQAWALLLTICPSTQISHILDRQLPRLPQLLSSESVNLRIAAGETIALLFELARDLEEEFVYEDMEALCSVLRTLATDSNKYRAKADRRRQRSTFRAVLHSVEGGECEEEIVRFGFEVLYMDSWARHRIYAAFKEVLGSGMHHHLQNNELLRDIFGLGPVLLLDATALKACKVPRFEKHLYNAAAFKARTKARSRVRDKRADIL [IFRD2],-0.734,-2.6,-1.01,0.211,56.3 °C,54.5 °C
MATDWLGSIVSINCGDSLGVYQGRVSAVDQVSQTISLTRPFHNGVKCLVPEVTFRAGDITELKILEIPGPGDNQHFGDLHQTELGPSGAGCQVGINQNGTGKFVKKPASSSSAPQNIPKRTDVKSQDVAVSPQQQQCSKSYVDRHMESLSQSKSFRRRHNSWSSSSRHPNQATPKKSGLKNGQMKNKDDECFGDDIEEIPDTDFDFEGNLALFDKAAVFEEIDTYERRSGTRSRGIPNERPTRYRHDENILESEPIVYRRIIVPHNVSKEFCTDSGLVVPSISYELHKKLLSVAEKHGLTLERRLEMTGVCASQMALTLLGGPNRLNPKNVHQRPTVALLCGPHVKGAQGISCGRHLANHDVQVILFLPNFVKMLESITNELSLFSKTQGQQVSSLKDLPTSPVDLVINCLDCPENVFLRDQPWYKAAVAWANQNRAPVLSIDPPVHEVEQGIDAKWSLALGLPLPLGEHAGRIYLCDIGIPQQVFQEVGINYHSPFGCKFVIPLHSA [EDC3],-0.0361,1.79,1.47,0.245,50.1 °C,50 °C
MGGSASSQLDEGKCAYIRGKTEAAIKNFSPYYSRQYSVAFCNHVRTEVEQQRDLTSQFLKTKPPLAPGTILYEAELSQFSEDIKKWKERYVVVKNDYAVESYENKEAYQRGAAPKCRILPAGGKVLTSEDEYNLLSDRHFPDPLASSEKENTQPFVVLPKEFPVYLWQPFFRHGYFCFHEAADQKRFSALLSDCVRHLNHDYMKQMTFEAQAFLEAVQFFRQEKGHYGSWEMITGDEIQILSNLVMEELLPTLQTDLLPKMKGKKNDRKRTWLGLLEEAYTLVQHQVSEGLSALKEECRALTKGLEGTIRSDMDQIVNSKNYLIGKIKAMVAQPAEKSCLESVQPFLASILEELMGPVSSGFSEVRVLFEKEVNEVSQNFQTTKDSVQLKEHLDRLMNLPLHSVKMEPCYTKVNLLHERLQDLKSRFRFPHIDLVVQRTQNYMQELMENAVFTFEQLLSPHLQGEASKTAVAIEKVKLRVLKQYDYDSSTIRKKIFQEALVQITLPTVQKALASTCKPELQKYEQFIFADHTNMIHVENVYEEILHQILLDETLKVIKEAAILKKHNLFEDNMALPSESVSSLTDLKPPTGSNQASPARRASAILPGVLGSETLSNEVFQESEEEKQPEVPSSLAKGESLSLPGPSPPPDGTEQVIISRVDDPVVNPVATEDTAGLPGTCSSELEFGGTLEDEEPAQEEPEPITASGSLKALRKLLTASVEVPVDSAPVMEEDTNGESHVPQENEEEEEKEPSQAAAIHPDNCEESEVSEREAQPPCPEAHGEELGGFPEVGSPASPPASGGLTEEPLGPMEGELPGEACTLTAHEGRGGKCTEEGDASQQEGCTLGSDPICLSESQVSEEQEEMGGQSSAAQATASVNAEEIKVARIHECQWVVEDAPNPDVLLSHKDDVKEGEGGQESFPELPSEE [FAM129A],0.169,1.18,2.35,-0.0907,50 °C,49.7 °C
MAAPAQQTTQPGGGKRKGKAQYVLAKRARRCDAGGPRQLEPGLQGILITCNMNERKCVEEAYSLLNEYGDDMYGPEKFTDKDQQPSGSEGEDDDAEAALKKEVGDIKASTEMRLRRFQSVESGANNVVFIRTLGIEPEKLVHHILQDMYKTKKKKTRVILRMLPISGTCKAFLEDMKKYAETFLEPWFKAPNKGTFQIVYKSRNNSHVNREEVIRELAGIVCTLNSENKVDLTNPQYTVVVEIIKAVCCLSVVKDYMLFRKYNLQEVVKSPKDPSQLNSKQGNGKEAKLESADKSDQNNTAEGKNNQQVPENTEELGQTKPTSNPQVVNEGGAKPELASQATEGSKSNENDFS [THUMPD1],0.555,0.34,2.04,-0.0115,53.7 °C,54.3 °C
FXR1,-0.859,-2.47,2.23,0.215,50.3 °C,50.8 °C
PCM1,-0.73,-0.276,0.507,0.65,49.8 °C,50.3 °C
MADMQNLVERLERAVGRLEAVSHTSDMHRGYADSPSKAGAAPYVQAFDSLLAGPVAEYLKISKEIGGDVQKHAEMVHTGLKLERALLVTASQCQQPAENKLSDLLAPISEQIKEVITFREKNRGSKLFNHLSAVSESIQALGWVAMAPKPGPYVKEMNDAAMFYTNRVLKEYKDVDKKHVDWVKAYLSIWTELQAYIKEFHTTGLAWSKTGPVAKELSGLPSGPSAGSCPPPPPPCPPPPPVSTISCSYESASRSSLFAQINQGESITHALKHVSDDMKTHKNPALKAQSGPVRSGPKPFSAPKPQTSPSPKRATKKEPAVLELEGKKWRVENQENVSNLVIEDTELKQVAYIYKCVNTTLQIKGKINSITVDNCKKLGLVFDDVVGIVEIINSKDVKVQVMGKVPTISINKTDGCHAYLSKNSLDCEIVSAKSSEMNVLIPTEGGDFNEFPVPEQFKTLWNGQKLVTTVTEIAG [CAP1],0.178,-0.637,-0.459,0.000121,53.6 °C,53.2 °C

# Source: the supplement of paper PMC5998384
